For series [1] the following is noted: cited from earlier work.
Series [2] is described as follows: Cell-free conversion of β-carotene to zeaxanthin with cell lysate expressing CrtZ. Format: biochemical. To be noted: 1.67 mM β-carotene, 24 hours. On the procedure:
Enzyme Expression and Purification: All genes were synthesized and cloned into expression plasmids and then transformed into E. coli cells for expression. Cells were grown in Terrific Broth media supplemented with 50 μg/mL kanamycin sulfate at 37° C. and 200 rpm until A595=0.6. Cells were cooled to 18° C., protein expression was induced, and the cultures were grown for an additional 18 h. Cell pellets were collected by centrifugation, and then resuspended in a 1.8 mL lysis buffer (50 mM Tris pH 8.5, 150 mM NaCl, 10% Glycerol (v/v)) per gram of cell paste. Cell lysates were prepared by sonication and clarified by centrifugation at 11,000×g for 10 minutes, at 4° C. After clarification, lysate was kept on ice or flash frozen and stored at −80° C. for later use.
Analytical methods: For sampling, 5× volume of THE was mixed with the reaction fluid, followed by high-speed centrifugation. Samples were run on an HPLC system to examine the amount of β-cryptoxanthin and zeaxanthin present in the reaction mixture. The HPLC method was as follows: An Agilent 1200 HPLC was fitted with an Acclaim C-30 Column 250 mm×4.6 mm, 5 μm, equipped with an Acclaim C-30 guard column. The column was heated to 20° C. with the sample block being maintained at 20° C. For each sample, 10 μL was injected and the product was eluted at a flow rate of 1.0 ml/min using Methanol (solvent A) and tert-butyl-methyl ether (solvent B) with the following gradient: 80% A to 65% A for 10 min, 65% A to 10% A for 10 min, 10% A for 5 min, 10% A to 80% for 0.5 min, and 80% A for 5.5 min for column equilibration. The run time was a total of 31 minutes with zeaxanthin eluting at 7.2 mins, β-cryptoxanthin eluting at 12.2 minutes, and β-carotene eluting at 16.9 min. A diode array detector (DAD) was used for the detection of the molecule of interest at 450 nm.
As described herein, β-carotene is hydroxylated by the CrtZ enzyme (CrtZ, EC1.14.15.24) to form β-cryptoxanthin, and then β-cryptoxanthin is hydroxylated by CrtZ to form Zeaxanthin. […]

[3] abbreviates: 2% polysorbate 20, 6% THE, 0.2 mM FeSO4, 16° C.

With `CC1=C(/C=C/C(C)=C/C=C/C(C)=C/C=C/C=C(C)/C=C/C=C(C)/C=C/C2=C(C)CCCC2(C)C)C(C)(C)CCC1` [β-carotene], in series [1], the solubility in water entry is “insoluble in water”.
`CC1=C(/C=C/C(C)=C/C=C/C(C)=C/C=C/C=C(C)/C=C/C=C(C)/C=C/C2=C(C)C[C@@H](O)CC2(C)C)C(C)(C)CCC1` [β-cryptoxanthin]: the solubility in water entry in series [1] was “insoluble in water”.

B1: P. ananatis CrtZ: β-carotene hydroxylase enzyme (CrtZ, EC1.14.15.24) from P. ananatis, used as E. coli cell lysate; likely Pantoea WP_013027996.1 (protein, listed as Pantoea sp.)
chain: MLWIWNALIVFVTVIGMEVVAALAHKYIMHGWGWGWHLSHHEPRKGAFEVNDLYAVVFAALSILLIYLGSTGMWPLQWIGAGMTAYGLLYFMVHDGLVHQRWPFRYIPRKGYLKRLYMAHRMHHAVRGKEGCVSFGFLYAPPLSKLQATLRERHGARAGAARDAQGGEDEPASGK
Regarding B1, the “β-carotene substrate converted into zeaxanthin” value in series [2] (2% polysorbate 20 (v/v), 6% THE (v/v), 0.2 mM FeSO4, concentrated cell lysate, 16° C.) was 84 % (molar ratio). In series [2] (setting [3]), this molecule registered a zeaxanthin concentration produced of roughly 1.4 mM and a zeaxanthin titer produced of 796 mg/L.
